Results from the supplement of paper PMC9170038.

Experiments:
MS2 coat protein [1] = assay: apparent KD of MS2 coat protein, switch ON state; designed switch direction (-1 OFF switch, 1 ON switch): -1; higher = weaker reporter binding; conditions: FMN input: 0 or 200 uM; Eterna round: R93 (includes R88 designs)
How it was run: (§1)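 Apparent KD stands for the median, per design, of fits to normalised cluster binding curves. The curves came from titrating on-chip-transcribed RNA switches on Illumina sequencing clusters with SNAP-549-labelled MS2 coat protein, twofold from 0.7 or 1.5 nM to 3 µM. Buffer was 100 mM Tris-HCl pH 7.5, 80 mM KCl, 4 mM MgCl2, without or with constant ligand.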

MS2 coat protein [2] = assay: apparent KD of MS2 coat protein, switch OFF state (with FMN for OFF switches, without FMN for ON switches); designed switch direction (-1 OFF switch, 1 ON switch): -1; higher = weaker reporter binding; conditions: FMN input: 0 or 200 uM; Eterna round: R93 (includes R88 designs)
How it was run: as §1

| Sequence | apparent KD of MS2 coat protein (MS2 coat protein [1]) [nM] | apparent KD of MS2 coat protein (MS2 coat protein [2]) [nM] |
| --- | --- | --- |
| AAAAAGUGAGGAUAUGGAAAAAAAAAAAAAAAAAAAAAAAACCAGAAGGCACAUGAGGAUCACCCAUGUAAAAA [exclusive 2] | 38.6 | 30.9 |
| GCUUGUCAAGGAUAUACAUGAGGAUCACCCAUGUGAGAGAAAAAAGUGAGAAAGAAAAGUAGAAGGUGGUGAGG [salish99-ex3-78] | 33.3 | 46.6 |
| AGCAAACAUGAGGAUCACCCAUGUGAGGAUAUGAACGAAAAUAAAUAAAAAUAAAAGUUCAGAAGGCACGAGCA [66%, Wbt, 26] | 30.4 | 35.6 |
| AAAGGACGAGGAUAUACAUGAGGAUCACCCAUGUAAAAAGCAUAAUAAAAUAACUUAUGUAGAAGGCGUCCAAA [Mat - Exclusion 3 - Eli mod - D91] | 22 | 102 |
| AAAUCAGUAGGAUAUACGAUUUUAUGCUAGAUAGAGGAACCACAUGAGGAUCACCCAUGUAGAAGGACUAGAUA [EX2 Malc#24] | 14.5 | 16.4 |
| AAGAAGUGAGGAUAUCGUUGUCGUCACAAAAGUGAUGACGACGAGAAGGCACAUGAGGAUCACCCAUGUAAAGA [Opal 28] | 37.8 | 43 |
| UAUAGACAUGAGGAUCACCCAUGUGAGGAUAUCGGUAACUACAAAACAUCACAUACAACGAGAAGGCACAGAAA [JR_Exc001_Sub013] | 41.5 | 35.1 |
| AUGGUACAUGAGGAUCACCCAUGUCAGGAUAUCGGCUAAAACGUAAAAAAAAUAAAAGCGAGAAGGGACUGCUC [EX1 Malc#18 Mod 8 - Jieux - Exclusion 1] | 24 | 28.3 |
| AAAAAGGCAGGAUAUACGUACAUGUCAAAAGACGUGAAGGGACAUGAGGAUCACCCAUGUAGAAGGGUCAAGAA [JL Stem Breaker 19] | 128 | 61.9 |
| AAAAAACAUGAGGAUCACCCAUGUGAGGAUAUCGAAAAGUCAAAGAAAAAGACGAAAACGAGAAGGCACAAAAA [Mat - Mod of Eli 2] | 28.1 | 43.6 |
| AAGAAUGGAGGAUAUACAAAAUAAAAGAAAAGAAAGAAAGAACAUGAGGAUCACCCAUGUAGAAGGCCAAAGAA [Khasekhemre Neferhotep I] | 33.6 | 24.7 |
| AAAAAACAUGAGGAUCACCCAUGUGAGGAUAUGAACGAAAUAAAAUAAAAAUAAAAGUUCAGAAGGCACAAAAA [Mat - Exclusion 1 - Eli mod - D11] | 33.2 | 44.7 |
| CCGAGGCGAGGAUAUAUGAAGGACACAACAUUUAGGGUAAGACAUGAGGAUCACCCAUGUAGAAGGCGCGACGC [Ex2_Neo] | 74.5 | 38.7 |
| AACUGUACAGGAUAUACAUGAGGAUCACCCAUGUGAGAAUUAAGUGGAGAACCACAAAGUAGAAGGGUACAGGA [Mat - Exclusion 3 - JL mod - D17] | 45.7 | 218 |
| UACGUAUGAGGAUAUACAAACAGAAAAAUCAGACAUAACAGACAUGAGGAUCACCCAUGUAGAAGGCAUAUACA [JR_Exc002_Sub903] | 20.1 | 15.3 |
| AGGAUGUCAGGAUAUGUGUAAAGAAUAAAACAAAUAACAACACAGAAGGGACAUGAGGAUCACCCAUGUUACGA [May 43] | 31.1 | 37.3 |
| AAUGUACGAGGAUAUACAUAGAUACAGAUACAUGUAGACGUACAUGAGGAUCACCCAUGUAGAAGGCGUAUAUA [Mat - Same state - Mayanna Mod - D113] | 82.8 | 172 |
| AAAAAUCGAGGAUAUACAUGAGGAUCACCCAUGUUGGAAAACGAUUACACAAAAGAAAGUAGAAGGCGAUAAAA [Ex 3 May 21] | 16.5 | 24.7 |
| AACAGGACAGGAUAUACAUGAGGAUCACCCAUGUGAGAAUUAAGUGGCGUACCACAAAGUAGAAGGGUCCUGGA [Mat - Exclusion 3 - JL mod - D40] | 44.5 | 216 |
| AAAUACUAAGGAUAUACAUGAGGAUCACCCAUGUACAAACCCGUGGAACGGAUCGUUAGUAGAAGGUGGACAAA [Zaanrion] | 15.6 | 15.4 |
| AACAGUACAGGAUAUACAUGAGGAUCACCCAUGUGGGAAUUAAGUGGCGUACCACAAUGUAGAAGGGUACUGGA [JL In the Red] | 129 | 228 |
| AGGAAACAUGAGGAUCACCCAUGUAAGGAUAUGAACGAAAAUAAAUAAAAAUAAAAGUUCAGAAGGUACGAAAA [66%, Wbt, 7] | 30.7 | 55.1 |

| Sequence | apparent KD of MS2 coat protein (MS2 coat protein [1]) [nM] | apparent KD of MS2 coat protein (MS2 coat protein [2]) [nM] |
| --- | --- | --- |
| CAAAAGGAAGGAUAUACAUAAUAAAACGGGCGGGCACCUUAACAUGAGGAUCACCCAUGUAGAAGGUCCAAUAC [Onesmabe] | 15.7 | 18.6 |
| AACAAGUGAGGAUAUCGGAAAUGUAAAUAAGUUUCACAAAACGAGAAGGCACAUGAGGAUCACCCAUGUAAAUA [JR_Exc004_Sub013] | 32.1 | 25.6 |
| GAAAAGUGAGGAUAUACAUGAGGAUCACCCAUGUGUAUAAAAAAUUACACAAAAGAAAGUAGAAGGCACUAAAA [Mat - Exclusion 3 - Mayanna mod - D114] | 17.8 | 28.1 |
| GAGAGCCGAGGAUAUACAUGAGGAUCACCCAUGUAAAAAAAAAAAAAAAAAAAAUCAUGUAGAAGGCGGCUUUC [hsl_exclusion3] | 234 | 28.9 |
| GAAAAGUCAGGAUAUAUAGGAAAAAUAAAAAAAAUAAAACUAUAGAAGGGACAUGAGGAUCACCCAUGUUAAAA [Mat - Exclusion 4 - Mayanna - D131] | 43.9 | 24.7 |
| CUCAAGUUAGGAUAUACAAGAAAAGAAGAGAAAGAAAAGAAGUAGAAGGAACAUGAGGAUCACCCAUGUAAGAA [EteRNA is fun!] | 33.2 | 25.7 |
| GAAAAACAUGAGGAUCACCCAUGUAAGGAUAUGCGAAAAUAAAAUAAAAUAAAAUAAAGCAGAAGGUACAAAAG [Mat - Exclusion 1 - Eli mod - D2] | 34.7 | 58.4 |
| AGUCAUACAGGAUAUACAUGAGGAUCACCCAUGUUUAUCCUAAAAGGGUGAUCCUCAUGUAGAAGGGUAUGACA [EX3 209: Super Stable 9] | 23.7 | 14.5 |
| CUCUUGUCAGGAUAUCAAAGAAAAGAAGAGAAAGAAAAGAAUGAGAAGGGACAUGAGGAUCACCCAUGUAAGAA [EteRNA is fun!] | 48.1 | 51.7 |
| AGUUGGCGAGGAUAUACAUGAGGAUCACCCAUGUAAAAUAAAUAAAAAGGGAAAAAGAGUAGAAGGCGCUGACA [73%, Moding Norbert Elias, 8] | 42.6 | 192 |
| AAGGUAGGAGGAUAUACAUAGAUACAGAUACAUGUAGACGUACAUGAGGAUCACCCAUGUAGAAGGCCUAUAUA [Mat - Same state - Mayanna Mod - D147] | 97.3 | 107 |
| AAAAAUGGAGGAUAUACAUGAGGAUCACCCAUGUGUAUAAAAAAAUACACAAAAGAAAGUAGAAGGCCAUAAAA [Ex 3 Ice] | 35 | 94.3 |
| AAAACGUGAGGAUAUGCACCAAAAAAGGUAAUUCGGGUACGACAUGAGGAUCACCCAUGUAGAAGGCACGAAAA [Frodo Flailing 12 - Jieux - Exclusion 2] | 29.9 | 28.7 |
| AGGAAACAUGAGGAUCACCCAUGUGAGGAUAUAGAAAAGAAAAGAAAAGAAAGAAGAACUAGAAGGUACAAGAA [Menkauhor Kaiu] | 21 | 26.8 |
| GGGCCACAUGAGGAUCACCCAUGUAAGGAUAUGCUAGGGAUGGAAACCAUUACGCAAAGCAGAAGGUACUAAAG [Janelle Amethyst 18 Mod 10 - Jieux - Exclusion 1] | 26.6 | 28.2 |
| AGAAAGCGAGGAUAUGCUCGGGUUGAAUGACGAGAGAAUACACAUGAGGAUCACCCAUGUAGAAGGUGUAUAAA [JR_Exc002_Sub1712] | 54 | 35.1 |
| AGAAAGGCAGGAUAUACAUGAGGAUCACCCAUGUUAAGAAAGUGCGAAAGCACAAGAAGUAGAAGGGCCAAGAA [Rupert goes to college] | 23.2 | 19.2 |
| AAAAAGUGAGGAUAUGCGCUGUCAUGUAGACACGAGCAGUCGUAGAAGGCACAUGAGGAUCACCCAUGUUUAAA [EX4 Malc#24] | 31.9 | 20 |
| AGAACGUCAGGAUAUGCAACAACAAGUAAAUAGAGAAGAAGGCAGAAGGGACAUGAGGAUCACCCAUGUAAGAA [e4] | 44.1 | 29.9 |
| ACAAGACAUGAGGAUCACCCAUGUGAGGAUAUGCUCGGAUGACAUGACGUUAGCUAACGCAGAAGGCACAAUAA [Exclusion 1] | 28.7 | 36.7 |
| GAGAAGUUAGGAUAUGCGGAGGGAAGGAAGGAAAGGGAAGGGCAGAAGGAACAUGAGGAUCACCCAUGUAAGAG [salish99-ex4-02] | 35.9 | 25.3 |
| CAGAGACAUGAGGAUCACCCAUGUUAGGAUAUGCGUGUAUGCUAAAAAAAGUUAACAAGCAGAAGGAACAGAGG [JR_Exc001_Sub309] | 24.3 | 64.2 |
